Results published in publication PMC8836349, “Characterization of adenine phosphoribosyltransferase (APRT) activity in Trypanosoma brucei brucei: Only one of the two isoforms is kinetically active” (PLoS Neglected Tropical Diseases, 2022).

T1: APRT1 (TbbAPRT1) (Trypanosoma brucei, UniProt Q57V32)
T1 construct: gene Tb07.43M14.180; full-length ORF, codon optimized, expressed in Pichia pastoris; His6/mCherry tag removed with TEV protease; homodimer
T1 sequence (Q57V32 1-235): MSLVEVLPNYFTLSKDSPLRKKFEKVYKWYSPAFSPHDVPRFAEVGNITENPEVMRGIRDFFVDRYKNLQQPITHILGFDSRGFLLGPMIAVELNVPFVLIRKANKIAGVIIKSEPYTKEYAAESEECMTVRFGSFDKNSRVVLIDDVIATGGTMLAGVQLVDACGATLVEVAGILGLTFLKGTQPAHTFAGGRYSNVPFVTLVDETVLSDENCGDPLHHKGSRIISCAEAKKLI

B1: APRT2 (Trypanosoma brucei brucei TREU927) (protein)
chain: MSQYDAILTERHPHHFTLADTHPLAKELHANIFGESDLTHANCAHVYDISSLTEKPALFRKVIEFLKCRYETMGDTGPTHIIGVESRGYIIGAPLAVALGIPFVTARVTKRFPSSFVPEGDDLKYLPMSRSIRNDSIPPRARVLIVDDFIGTGSTMLAALRLADIVAAQVVEVLTVCDVASLGGIKIIRESDDEMFKETPIFTLIHFKLSPREAEEQLEFVNSYITRSRL
notes: full-length ORF, codon optimized, expressed in Pichia pastoris; N- or C-terminal His6/mCherry tag removed with TEV protease; weak dimer
B2: APRT2 (Trypanosoma brucei brucei putative adenine phosphoribosyltransferase 2, Tb927.7.1790), expressed in P. pastoris, vector not told (natural protein, UniProt Q57V31 1-230, looked up)
chain: B1 chain
notes: APRT2 of Trypanosoma brucei brucei, Tb927.7.1790, UniProt Q57V31; the ORF, codon optimised for P. pastoris, cloned into a pPICZ vector; tags were removed with TEV protease; also called TbbAPRT2; source: Pichia pastoris strain smPP, purified (Ni-NTA, TEV cleavage, second Ni-NTA)
B3: APRT2-Ctag (Trypanosoma brucei brucei putative adenine phosphoribosyltransferase 2, Tb927.7.1790, expressed from pPICZ-Ctag) (natural protein, UniProt Q57V31 1-230, looked up)
chain: B1 chain
notes: APRT2 of Trypanosoma brucei brucei, Tb927.7.1790, UniProt Q57V31; the ORF, codon optimised for P. pastoris, cloned into pPICZ-Ctag; Tags removed with TEV protease; measured native-MS mass 26,637 Da (theoretical 26,647 Da), so residues of the TEV site are likely left at the C-terminus; also called TbbAPRT2; source: Pichia pastoris strain smPP, purified (Ni-NTA, TEV cleavage, second Ni-NTA); not …
B4: APRT2-Ntag (Trypanosoma brucei brucei putative adenine phosphoribosyltransferase 2, Tb927.7.1790, expressed from pPICZ-Ntag) (natural protein, UniProt Q57V31 1-230, looked up)
chain: B1 chain
notes: APRT2 of Trypanosoma brucei brucei, Tb927.7.1790, UniProt Q57V31; the ORF, codon optimised for P. pastoris, cloned into pPICZ-Ntag; Tags removed with TEV protease; measured native-MS mass 25,860 Da (theoretical 25,853 Da); also called TbbAPRT2; source: Pichia pastoris strain smPP, purified (Ni-NTA, TEV cleavage, second Ni-NTA); not shown: His6, N-terminal, cleaved; mCherry, N-terminal, cleaved
B5: Trypanosoma brucei brucei adenine phosphoribosyltransferase 1 (APRT1, Tb927.7.1780) (enzyme, UniProt Q57V32 1-235, looked up)
chain: T1 sequence (Q57V32 1-235)
notes: APRT1 of Trypanosoma brucei brucei, Tb927.7.1780, UniProt Q57V32; the ORF, codon optimised for P. pastoris, cloned into a pPICZ vector; tags were removed with TEV protease (tag-less APRT1); also called TbbAPRT1; source: Pichia pastoris strain smPP, purified (Ni-NTA, TEV cleavage, second Ni-NTA)

Key:
APRT1 (TbbAPRT1) = molecular target: T1, APRT1 (TbbAPRT1); experiment: coupled myokinase/pyruvate kinase/lactate dehydrogenase assay, NADH at […] nm; type: biochemical; conditions: read-out: Apparent inhibition parameters^b
purified protein [1] = substrate: Nc1ncnc2nc[nH]c12; experiment: purified protein; type: biochemical, Trypanosoma brucei; conditions: 100 mM HEPES pH 7.8, 25 mM MgCl2, room temperature
[2] = molecular target: the molecule itself; experiment: SEC; Superdex 200 Increase 10/300 GL; 200 uL of APRT1 at 13.8 mg mL^-1 or APRT2 at 10.8 mg mL^-1; 50 mM HEPES pH 7.8, 300 mM NaCl, 50 mM L-arginine, 50 mM L-glutamate; column calibrated with standards of 1,350 to 670,000 Da
[3] = molecular target: B5; experiment: cell-based or functional assay
[4] = molecular target: the molecule itself; experiment: cross-linking; dimethyl suberimidate (DMS) 8.7 mM, 0.2 M triethanolamine pH 8.5, purified APRT at 17.8, 35, 69 or 140 ug mL^-1, RT, 5-8 hours; 12% SDS-PAGE, Coomassie Blue
purified protein [5] = substrate: O=P(O)(O)OC[C@H]1O[C@H](OP(=O)(O)OP(=O)(O)O)[C@H](O)[C@@H]1O; experiment: purified protein; type: biochemical, Trypanosoma brucei; conditions: varied PRPP (10-250 μM) at fixed adenine 1-20 μM, 100 mM HEPES pH 7.8, 25 mM MgCl2, room temperature
[6] = kinetic dissociation constant from free enzyme, varied adenine (1.5-50 μM) at fixed PRPP 25-150 μM

Question: Which Ki (APRT1 (TbbAPRT1)) does the source give for Nc1ncnc2cc[nH]c12 [9-deazaadenine] here?
Answer: The Ki was 156 ± 21 µM.

Question: With B1 as the molecule, how does the Km (purified protein [1]; adenine 50-500 μM, 1 mM PRPP) read?
Answer: Its Km is 253 ± 4 µM.

Question: What about the kcat (purified protein [1]; adenine 50-500 μM, 1 mM PRPP) of the same molecule?
Answer: The kcat was 0.003 ± 0.0002 s⁻¹.

Question: What about the kcat/Km (purified protein [1]; adenine 50-500 μM, 1 mM PRPP) of the same molecule?
Answer: Its kcat/Km is 12 ± 0.8 M⁻¹ s⁻¹.

Question: Which “stoichiometry N” value [2] does the source give for B2 here?
Answer: Its value is 2.

Question: And the “fold decrease in AMP formation (APRT activity) of an equimolar mixture pre-incubated 4 hours on ice (100 nM APRT1: 100 nM APRT2) against 200 nM APRT1 alone and 100 nM APRT1 alone” value [3]?
Answer: The value was 2 fold.

Question: How did the “stoichiometry N” value [4] turn out when B3 was run?
Answer: Its value is 2.

Question: With B4 as the molecule, how does the “stoichiometry N” value [4] read?
Answer: The value was 2.

Question: With B5 as the molecule, how does the Km (purified protein [1]; [6]) read?
Answer: The Km was 2.2 ± 0.7 µM.

Question: And the kcat (purified protein [1]; [6])?
Answer: Its kcat is 0.62 ± 0.02 s⁻¹.

Question: What about the Km (purified protein [5]) of the same molecule?
Answer: The Km was 68 ± 11 µM.

Question: What about the kcat (purified protein [5]) of the same molecule?
Answer: The kcat was 0.61 ± 0.04 s⁻¹.

Question: And the kcat/Km (purified protein [5])?
Answer: Its kcat/Km is 9000 ± 1600 M⁻¹ s⁻¹.

Question: What about the “stoichiometry N” value [4] of the same molecule?
Answer: The value was 2.
